Results as given in article PMC10786891, “Massively parallel profiling of RNA-targeting CRISPR-Cas13d”.
Residue numbers refer to the chain shown, from its start. Numbers in names are those of the source.

T1: EsCas13d, nuclease-dead (Eubacterium siraeum, UniProt B0MS50, R295A;H300A;R849A;H854A)
T1 sequence: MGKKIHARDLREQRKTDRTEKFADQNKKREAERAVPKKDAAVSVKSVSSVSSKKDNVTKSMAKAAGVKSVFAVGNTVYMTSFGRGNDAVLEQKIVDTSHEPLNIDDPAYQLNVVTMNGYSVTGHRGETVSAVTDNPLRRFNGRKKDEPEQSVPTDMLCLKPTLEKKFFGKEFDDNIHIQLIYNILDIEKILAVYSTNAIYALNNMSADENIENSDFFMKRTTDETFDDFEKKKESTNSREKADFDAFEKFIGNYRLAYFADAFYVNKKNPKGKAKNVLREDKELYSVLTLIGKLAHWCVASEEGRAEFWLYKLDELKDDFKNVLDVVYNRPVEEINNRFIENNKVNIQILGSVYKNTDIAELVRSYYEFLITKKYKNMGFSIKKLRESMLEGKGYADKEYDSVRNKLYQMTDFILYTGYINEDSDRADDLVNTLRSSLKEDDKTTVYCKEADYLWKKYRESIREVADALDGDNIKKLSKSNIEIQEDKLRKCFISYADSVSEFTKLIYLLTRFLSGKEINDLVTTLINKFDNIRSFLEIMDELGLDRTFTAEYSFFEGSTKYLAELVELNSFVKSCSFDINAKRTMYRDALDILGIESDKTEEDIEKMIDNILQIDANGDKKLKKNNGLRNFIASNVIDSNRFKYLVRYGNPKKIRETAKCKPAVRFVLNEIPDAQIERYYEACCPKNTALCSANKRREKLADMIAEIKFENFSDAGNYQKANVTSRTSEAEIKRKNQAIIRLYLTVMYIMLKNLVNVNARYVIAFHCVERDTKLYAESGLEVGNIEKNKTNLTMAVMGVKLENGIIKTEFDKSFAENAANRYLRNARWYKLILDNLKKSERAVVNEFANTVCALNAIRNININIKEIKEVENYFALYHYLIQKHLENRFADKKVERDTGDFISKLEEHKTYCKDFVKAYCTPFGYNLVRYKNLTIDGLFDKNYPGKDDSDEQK

B1: target 1 U8G (mixed)
RNA 1: CACCCGUGCAAAAAUGCAGGGGUCUAAAACUGAGCGGAUAACCUCUCUAUGG
RNA 2: GGGAAUGGAUCCACAUCUACGAAUUCGUACCAUAGAGAGGUUAGCCGCUCACCGAGAUCGGAAGAGCACACGU
B2: target 1 U10C,G13A (mixed)
RNA 1: B1 RNA 1
RNA 2: B1 RNA 2 with G39A, U42C, G44U
B3: target 1 C7G,G12U (mixed)
RNA 1: B1 RNA 1
RNA 2: B1 RNA 2 with G40U, G44U, C45G
B4: target 1 A16G,G17C (mixed)
RNA 1: B1 RNA 1
RNA 2: B1 RNA 2 with G35C, A36G, G44U
B5: target 1 insU 3' of 7,insU 3' of 1 (mixed)
RNA 1: B1 RNA 1
RNA 2: GGGAAUGGAUCCACAUCUACGAAUUCGUACCAUAGAGAGGUUAUCUCGCUCAUCCGAGAUCGGAAGAGCACACGU
B6: target 1 insU 3' of 5,insA 3' of 5 (mixed)
RNA 1: B1 RNA 1
RNA 2: B5 RNA 2 with U46C, C47G, G48U, C49A, U50C, C51U, A52C, U53A
B7: target 1 insG 3' of 8,insC 3' of 5 (mixed)
RNA 1: B1 RNA 1
RNA 2: B5 RNA 2 with C45G, U46C, U50C, C51U, A52C, U53A
B8: target 1 C4U,C6A (mixed)
RNA 1: B1 RNA 1
RNA 2: B1 RNA 2 with G44U, C46A, C48U
B9: target 1 C7G,U11C (mixed)
RNA 1: B1 RNA 1
RNA 2: B1 RNA 2 with U41C, G44U, C45G
B10: target 1 insU 3' of 13,insA 3' of 5 (mixed)
RNA 1: B1 RNA 1
RNA 2: GGGAAUGGAUCCACAUCUACGAAUUCGUACCAUAGAGAGUGUUAUCCGACUCACCGAGAUCGGAAGAGCACACGU
B11: target 1 G17U,A18U (mixed)
RNA 1: B1 RNA 1
RNA 2: B1 RNA 2 with A34U, G35U, G44U
B12: target 1 U8A,G12C (mixed)
RNA 1: B1 RNA 1
RNA 2: B1 RNA 2 with G40C, G44A
B13: target 1 insC 3' of 19,insA 3' of 10 (mixed)
RNA 1: B1 RNA 1
RNA 2: GGGAAUGGAUCCACAUCUACGAAUUCGUACCAUCAGAGAGGUUAAUCCGCUCACCGAGAUCGGAAGAGCACACGU
B14: target 1 insA 3' of 21,insA 3' of 17 (mixed)
RNA 1: B1 RNA 1
RNA 2: B13 RNA 2 with U33A, C34U, G38A, A39G, G40A, U42G, A44U
B15: target 1 U10A,U19C (mixed)
RNA 1: B1 RNA 1
RNA 2: B1 RNA 2 with U33C, U42A, G44U
B16: target 1 insG 3' of 22,insU 3' of 18 (mixed)
RNA 1: B1 RNA 1
RNA 2: GGGAAUGGAUCCACAUCUACGAAUUCGUACGCAUAUGAGAGGUUAUCCGCUCACCGAGAUCGGAAGAGCACACGU
B17: target 1 C2U,G5C (mixed)
RNA 1: B1 RNA 1
RNA 2: B1 RNA 2 with G44U, G47C, C50U
B18: target 1 G17U,C22U (mixed)
RNA 1: B1 RNA 1
RNA 2: B1 RNA 2 with C30U, G35U, G44U
B19: target 1 insG 3' of 22,insC 3' of 20 (mixed)
RNA 1: B1 RNA 1
RNA 2: B16 RNA 2 with U34C, A35U, U36A
B20: target 1 insA 3' of 22,insA 3' of 15 (mixed)
RNA 1: B1 RNA 1
RNA 2: B16 RNA 2 with G31A, U36G, G37A, A38G, G39A
B21: target 1 insU 3' of 13,insA 3' of 12 (mixed)
RNA 1: B1 RNA 1
RNA 2: B10 RNA 2 with U42A, A44U, U45A, C46U, G48C, A49G
B22: target 1 G13C,A14G (mixed)
RNA 1: B1 RNA 1
RNA 2: B1 RNA 2 with A38G, G39C, G44U
B23: target 1 C4G,U10G (mixed)
RNA 1: B1 RNA 1
RNA 2: B1 RNA 2 with U42G, G44U, C48G
B24: target 1 U3A,A9U (mixed)
RNA 1: B1 RNA 1
RNA 2: B1 RNA 2 with A43U, G44U, U49A
B25: target 1 insG 3' of 10,insG 3' of 7 (mixed)
RNA 1: B1 RNA 1
RNA 2: B10 RNA 2 with U40G, G41U, U43G, C47G, G48C, A49G
B26: target 1 U3A,A14G (mixed)
RNA 1: B1 RNA 1
RNA 2: B1 RNA 2 with A38G, G44U, U49A
B27: target 1 C7G,U19G (mixed)
RNA 1: B1 RNA 1
RNA 2: B1 RNA 2 with U33G, G44U, C45G
B28: target 1 insA 3' of 4,insG 3' of 3 (mixed)
RNA 1: B1 RNA 1
RNA 2: B5 RNA 2 with U46C, C47G, G48C, C49A, C51G, A52C, U53A
B29: target 1 U3C,A9G (mixed)
RNA 1: B1 RNA 1
RNA 2: B1 RNA 2 with A43G, G44U, U49C
B30: target 1 G12U,G17A (mixed)
RNA 1: B1 RNA 1
RNA 2: B1 RNA 2 with G35A, G40U, G44U

Biological target: T1, EsCas13d, nuclease-dead
Assay: crRNA (strand 1, pre-loaded); Mg2+; 40 mM Tris-HCl pH 7.5, 150 mM NaCl, 6 mM MgCl2, 1 mM DTT, 0.1% Tween-20, 0.2 mg/ml BSA; 25 C; 10 min per concentration, then washed
Settings: tags: His6-TwinStrep-SUMO cleaved; N-terminal SNAP kept (SNAP-Surface 488); label: 3' end held by stalled T7 RNA polymerase

**Q.** B1 was tested. Which Kd did it give?
**A.** Its Kd is 19.2 ± 0.9 nM.

**Q.** Which Kd does the source give for B2 here?
**A.** The Kd was 13.6 ± 1 nM.

**Q.** How did the Kd turn out when B3 was run?
**A.** The Kd was 14.3 ± 1.1 nM.

**Q.** With B4 as the binder, how does the Kd read?
**A.** Its Kd is 76 ± 10 nM.

**Q.** How did the Kd turn out when B5 was run?
**A.** Its Kd is 18.4 ± 0.9 nM.

**Q.** For B6, which Kd is on record?
**A.** Its Kd is 13.9 ± 0.6 nM.

**Q.** For B7, which Kd is on record?
**A.** Its Kd is 10.2 ± 0.4 nM.

**Q.** With B8 as the binder, how does the Kd read?
**A.** Its Kd is 7.52 ± 0.33 nM.

**Q.** B9 was tested. Which Kd did it give?
**A.** The Kd was 14.6 ± 0.6 nM.

**Q.** B10 was tested. Which Kd did it give?
**A.** The Kd was 15.7 ± 2.7 nM.

**Q.** For B11, which Kd is on record?
**A.** The Kd was 29.8 ± 2.8 nM.

**Q.** For B12, which Kd is on record?
**A.** Its Kd is 16.5 ± 1.2 nM.

**Q.** Which Kd does the source give for B13 here?
**A.** Its Kd is 57 ± 5 nM.

**Q.** Which Kd does the source give for B14 here?
**A.** Its Kd is 41 ± 5 nM.

**Q.** How did the Kd turn out when B15 was run?
**A.** Its Kd is 35 ± 4 nM.

**Q.** For B16, which Kd is on record?
**A.** The Kd was 74 ± 18 nM.

**Q.** B17 was tested. Which Kd did it give?
**A.** Its Kd is 12.4 ± 0.8 nM.

**Q.** Which Kd does the source give for B18 here?
**A.** Its Kd is 32.4 ± 2.8 nM.

**Q.** With B19 as the binder, how does the Kd read?
**A.** Its Kd is 8.4 ± 0.7 nM.

**Q.** For B20, which Kd is on record?
**A.** Its Kd is 7.9 ± 0.4 nM.

**Q.** With B21 as the binder, how does the Kd read?
**A.** Its Kd is 10.1 ± 0.7 nM.

**Q.** How did the Kd turn out when B22 was run?
**A.** Its Kd is 31 ± 5 nM.

**Q.** With B23 as the binder, how does the Kd read?
**A.** Its Kd is 13.6 ± 0.5 nM.

**Q.** How did the Kd turn out when B24 was run?
**A.** Its Kd is 10.8 ± 0.9 nM.

**Q.** With B25 as the binder, how does the Kd read?
**A.** The Kd was 12.5 ± 0.6 nM.

**Q.** B26 was tested. Which Kd did it give?
**A.** Its Kd is 14.3 ± 1.2 nM.

**Q.** How did the Kd turn out when B27 was run?
**A.** The Kd was 34 ± 10 nM.

**Q.** How did the Kd turn out when B28 was run?
**A.** The Kd was 6.5 ± 0.4 nM.

**Q.** B29 was tested. Which Kd did it give?
**A.** The Kd was 30.5 ± 3.2 nM.

**Q.** Which Kd does the source give for B30 here?
**A.** Its Kd is 59 ± 8 nM.
